The values below come from patent US6753317.

Non-standard residues stand in square brackets, D forms with d. *: point of attachment. des‑NH2‑α‑pyrrolidine‑1‑yl = Dmt (2',6'-dimethyl-L-tyrosine) with the α-amine replaced by pyrrolidine-1-yl, Cc1cc(O)cc(C)c1C[C@@H](C(=O)*)N1CCCC1; des‑NH2‑α‑pyrrole‑1‑yl = replacement of the α-amino group by a pyrrol-1-yl group; NH(1-Adamantyl) = C1C2CC3CC1CC(N*)(C2)C3; Dmt = Cc1cc(O)cc(C)c1C[C@H](N)C(=O)O; NH‑tetrazole‑5‑yl = n1nc(N*)n[nH]1; Tic = O=C(O)[C@@H]1Cc2ccccc2CN1; dTic = O=C(O)[C@H]1Cc2ccccc2CN1; NHtBu = CC(C)(C)N*

The chains are these.
B1: H-Dmt-Tic-NH-1-adamantane (peptide)
peptide: H-[Dmt]-[Tic]-{NH(1-Adamantyl)}
SMILES: Cc1cc(O)cc(C)c1C[C@H](N)C(=O)N1Cc2ccccc2C[C@H]1C(=O)NC12CC3CC(CC(C3)C1)C2
B2: H-Dmt-Tic-Ala-NH-tBu (peptide)
peptide: H-[Dmt]-[Tic]-Ala-NHtBu
SMILES: Cc1cc(O)cc(C)c1C[C@H](N)C(=O)N1Cc2ccccc2C[C@H]1C(=O)N[C@@H](C)C(=O)NC(C)(C)C

Sequence of δ-opioid receptor of the mouse vas deferens (MVD) (mouse), P32300 (P32300 whole entry, stated change not applied): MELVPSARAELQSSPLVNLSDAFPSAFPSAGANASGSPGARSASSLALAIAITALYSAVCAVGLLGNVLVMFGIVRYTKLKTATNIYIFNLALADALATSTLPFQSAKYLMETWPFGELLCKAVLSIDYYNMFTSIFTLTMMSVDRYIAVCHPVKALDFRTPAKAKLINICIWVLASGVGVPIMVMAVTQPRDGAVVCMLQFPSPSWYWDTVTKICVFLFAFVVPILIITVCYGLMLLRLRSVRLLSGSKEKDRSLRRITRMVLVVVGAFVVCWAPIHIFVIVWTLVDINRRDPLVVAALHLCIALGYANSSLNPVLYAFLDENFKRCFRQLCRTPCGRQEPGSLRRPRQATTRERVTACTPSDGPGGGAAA

The assay addresses δ-opioid receptor of the mouse vas deferens (MVD) (mouse), P32300. The assay can be described thus: cell-based or functional assay.
Turning to B1, the MVD ED50 turned out to be 870 nM and the MVD Ke was > 10000 nM.

In turn, {des‑NH2‑α‑pyrrolidine‑1‑yl}-[Dmt]-[Tic]-OH [[des-NH2-α-pyrrolidine-1-yl]-Dmt-Tic-OH] yielded an MVD Ke of 121 nM and an MVD pA2 of 6.9.

Molecule B2 gave an MVD Ke of 0.69 nM and an MVD pA2 of 9.16.

Molecule H-[Dmt]-[Tic]-Ala-NH2 [H-Dmt-Tic-Ala-NH2] displayed an MVD Ke of 9 nM and an MVD pA2 of 8.

{N,N‑dimethyl}-[Dmt]-[Tic]-OH (also: tritium-labelled form used as radioligand) [N,N(Me)2-Dmt-Tic-OH] registered an MVD Ke of 0.28 nM and an MVD pA2 of 9.4.

In turn, H-[Dmt]-[Tic]-NH2 [H-Dmt-Tic-NH2] registered an MVD Ke of 42 nM and an MVD pA2 of 7.2.

In turn, H-[Dmt]-[Tic]-{NH‑tetrazole‑5‑yl} [H-Dmt-Tic-NH-tetrazole-5-yl] gave an MVD Ke of 36.3 nM and an MVD pA2 of 7.44.

For H-[Dmt]-[Tic]-Ala-OH [H-Dmt-Tic-Ala-OH], the MVD Ke came out at 4 nM and the MVD pA2 is 8.4.

{N,N‑dimethyl}-[Dmt]-[dTic]-{NH(1-Adamantyl)} [N,N(Me)2-Dmt-D-Tic-NH-1-adamantane] showed an MVD Ke of 128 nM and an MVD pA2 of 6.91.

Turning to H-[Dmt]-[Tic]-NHMe [H-Dmt-Tic-NHMe], the MVD ED50 was determined as 21200 nM and the MVD Ke was > 10000 nM.

Regarding H-[Dmt]-[Tic]-Ala-NHMe (SMILES CNC(=O)[C@H](C)NC(=O)[C@@H]1Cc2ccccc2CN1C(=O)[C@@H](N)Cc1c(C)cc(O)cc1C) [H-Dmt-Tic-Ala-NHMe], the MVD ED50 came out at 1290 nM.

H-[Dmt]-[Tic]-Ala-{NH(1-Adamantyl)} [H-Dmt-Tic-Ala-NH-1-adamantane] yielded an MVD Ke of 0.51 nM and an MVD pA2 of 9.29.

{des‑NH2‑α‑pyrrole‑1‑yl}-[Dmt]-[Tic]-OH [[des-NH2-α-pyrrole-1-yl]-Dmt-Tic-OH] returned an MVD Ke of 408 nM and an MVD pA2 of 6.39.

The molecule {N,N‑dimethyl}-[Dmt]-[Tic]-NHMe [N,N(Me)2-Dmt-Tic-NHMe] returned an MVD Ke of 0.41 nM and an MVD pA2 of 9.39.

{N,N‑dimethyl}-[Dmt]-[Tic]-{NH(1-Adamantyl)} [N,N(Me)2-Dmt-Tic-NH-1-adamantane] came in with an MVD Ke of 0.87 nM and an MVD pA2 of 9.06.

On to H-[Dmt]-[dTic]-{NH(1-Adamantyl)} [H-Dmt-D-Tic-NH-1-adamantane], for which the MVD Ke is > 10000 nM.
